{
  "source": "patent US7629135B2",
  "about": "“Toll-like receptor agonists and antagonists and methods of use thereof” (The Board of Trustees of the University of Illinois, priority 2006, dated 2009)",
  "test_system": "mouse bone marrow derived macrophages (BMDM)",
  "assay": "G-CSF secretion in mouse BMDM (ELISA)",
  "format": "cell-based",
  "conditions": "for secreted mouse G-CSF: mouse BMDM",
  "method": "SAA induces G-CSF expression in monocytes and macrophages: To determine whether SAA plays a role in neutrophilia, the ability of SAA to stimulate G-CSF expression was investigated. Human peripheral blood monocytes (PBMC) were incubated with SAA, and the concentration of secreted G-CSF in the culture medium was determined at various time points after stimulation. The concentration of SAA used in this experiment (1 μM) was well within its physiological range (0.08 μM to 80 μM). […] Since subsequent studies used mice for measurement of G-CSF secretion and neutrophilia, SAA-induced G-CSF expression in mouse bone marrow derived macrophages (BMDM) was determined, of which 98% were F4/80^+ CD14^+ based on flow cytometry analysis. […] The basal level of G-CSF remained stable at approximately 42 pg/ml/10^6 cells over the entire course of incubation.\nIt was next determined whether induction of G-CSF expression was a primary function of SAA or resulted from contaminating LPS in the SAA preparation. The LPS concentration in the recombinant SAA preparation was ≦0.1 ng/μg protein, translating into ≦1.14 ng/ml LPS in a typical experiment with 1 μM SAA. LPS at this or 10-fold higher concentrations was tested for its effect on the expression of G-CSF. […] Given that most proteins are heat labile while LPS is heat resistant, the ability of heat-treated SAA (1 μM) and LPS (1 μg/ml) to stimulate G-CSF secretion in mouse BMDM was examined. After boiling for 25 min, LPS retained its ability to induce G-CSF production by ˜83%. […] In parallel experiments, polymyxin B, an amphiphilic cyclic polycationic peptide that specifically binds to LPS and blocks the cytokine-inducing effect of LPS (Stokes et al., 1989), was used to treat SAA or LPS prior to incubation with BMDM. […] Under the same experimental conditions, polymyxin B reduced LPS-stimulated G-CSF secretion by more than 70%.\nIt was previously shown that FPRL1 is involved in SAA-induced IL-8 production in human neutrophils (He et al., 2003). It has also been shown that SAA binds to FPRL1 and stimulates the production of matrix metalloproteinase (O'Hara et al., 2004). […] A role of TLR2 in SAA-stimulated G-CSF expression was examined.\nCell preparation and culture: Human peripheral blood monocytes were prepared from fresh, heparinized venous blood by Ficoll-Hypaque density-gradient centrifugation. Blood drawing followed a protocol approved by the Institutional Review Board at the University of Illinois at Chicago. Purified monocytes (>93% CD14^+ by flow cytometry) were kept in nonadherent condition in RPMI 1640 containing 0.5% FBS and maintained at 37° C. Mouse macrophages were differentiated from bone marrow cells. Mouse bone marrow cells were aspirated from the femurs of 8-12-week-old mice and cultured at 37° C. in 5% CO2 in RPMI 1640 medium containing 10% FBS, 15% L-cell conditional medium, 10 mM HEPES, 2 mM L-glutamine, 100 IU/ml penicillin, and 50 μg/ml streptomycin. The medium was changed every three days. Macrophages (about 98% F4/80+ by flow cytometry) were obtained after 7 days of culture. The mouse macrophage cell line RAW264.7 cells were maintained in DMEM medium supplemented with 10% FBS, 10 mM HEPES, 2 mM L-glutamine, 100 IU/ml penicillin, and 50 μg/ml streptomycin. TLR2-HeLa cells were generated by transfection of HeLa cell with the expression construct pUNO-hTLR2 (InvivoGen). Stable transfectants were selected with Blasticidin at 20 μg/ml for 2 weeks. Mock-transfected HeLa cells were generated similarly, with a pUNO empty vector. Cells were maintained in DMEM supplemented with 10% heat-inactivated FBS, 2 mM L-glutamine, 100 IU/ml penicillin, and 50 μg/ml streptomycin. Expression of TLR2 was confirmed using an anti-TLR2 antibody (eBioscience) and FTTC-conjugated anti-mouse antibody, on a FACSCalibur flow cytometer (Becton Dickinson). FIGS. 12 and 13 are plasmid maps of pUNO-hTLR2 and pNF-κB-Luc, respectively. […]",
  "data": [
    {"molecule": "SAA: Recombinant human SAA purchased from PeproTech; major acute-phase protein of 104 amino acids (protein, UniProt P0DJI8 19-122, looked up) Serum amyloid A-1 protein: RSFFSFLGEAFDGARDMWRAYSDMREANYIGSDKYFHARGNYDAAKRGPGGAWAAEVITDARENIQRFFGHGAEDSLADQAANEWGRSGKDPNHFRPAGLPEKY", "values": [
      {"measurement": "maximal G-CSF production", "setting": "BMDM, SAA, experiments of FIG. 4", "result": 446, "unit": "pg/ml/10^6 cells"},
      {"measurement": "ability to stimulate G-CSF secretion after heat treatment", "setting": "SAA 1 μM, boiled 25 min, BMDM, 16 h", "result": "could no longer stimulate G-CSF secretion"},
      {"measurement": "secreted mouse G-CSF", "setting": "SAA 1 μM, after 8 h", "result": 155, "unit": "pg/ml/10^6 cells"},
      {"measurement": "secreted mouse G-CSF", "setting": "SAA 1 μM, after 24 h", "result": 965, "unit": "pg/ml/10^6 cells"},
      {"measurement": "ability to induce G-CSF protein secretion in tlr2−/− BMDM", "setting": "tlr2−/− vs wild-type BMDM, SAA 1 μM", "result": "drastically reduced"}
    ]}
  ]
}
